Assay results reported in patent US20260109776A1 (Amgen, published 2026).
Where two headings read alike, the source gives them in different places.

Assays:
[1] = target: human CD40 (human, UniProt P25942 21-193, limits assumed); experiment: Octet
Method: (§1) The binding affinity of anti-human CD40 antibodies to human and cynomolgus monkey CD40 was measured by Octet assay (Table 3), quantifying association rate (Kon), disassociation rate (Kdis), and equilibrium binding constant (KD). Cross-reactivity of anti-CD40 antibodies to related TNF receptor superfamily (TNFRSF) members was evaluated by expressing human TNFR1, TNFR2, TNFR10, or TNFR14 on HEK293 cells by transient transfection of expression vectors encoding these genes. Binding of indicated anti-human CD40 antibody to these transfected cells was determined by flow cytometry. […] Cross-reactivity of anti-CD40 antibodies to cynomolgus monkey and mouse CD40 was evaluated by expressing cynomolgus monkey or mouse CD40 on HEK293 cells by transient transfection of expression vectors encoding these genes. Binding of indicated anti-human CD40 antibody to cells overexpressing cynomolgus monkey and mouse CD40 was determined by flow cytometry.

[2] = target: T1, human CD40 on cells (human, UniProt P25942 21-277); experiment: cell-based or functional assay
[3] = target: T1, human CD40 on cells; experiment: cell-based or functional assay; remark: listed apart in the source
Target sequence in this assay (P25942 21-277 limits assumed): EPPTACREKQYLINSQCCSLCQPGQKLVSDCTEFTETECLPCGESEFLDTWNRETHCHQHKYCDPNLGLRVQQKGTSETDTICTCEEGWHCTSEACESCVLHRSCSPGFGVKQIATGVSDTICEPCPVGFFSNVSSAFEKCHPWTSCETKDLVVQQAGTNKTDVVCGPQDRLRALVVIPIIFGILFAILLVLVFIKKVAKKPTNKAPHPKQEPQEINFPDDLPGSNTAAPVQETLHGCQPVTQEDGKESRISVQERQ

[4] = target: T2, mouse CD40 on cells (mouse, UniProt P27512 20-289); experiment: flow cytometry, HEK293 transfectants
T2 construct: whole, on cells; also called mouse CD40 on HEK293 cells; CD40 on mouse B cells
T2 sequence (looked up): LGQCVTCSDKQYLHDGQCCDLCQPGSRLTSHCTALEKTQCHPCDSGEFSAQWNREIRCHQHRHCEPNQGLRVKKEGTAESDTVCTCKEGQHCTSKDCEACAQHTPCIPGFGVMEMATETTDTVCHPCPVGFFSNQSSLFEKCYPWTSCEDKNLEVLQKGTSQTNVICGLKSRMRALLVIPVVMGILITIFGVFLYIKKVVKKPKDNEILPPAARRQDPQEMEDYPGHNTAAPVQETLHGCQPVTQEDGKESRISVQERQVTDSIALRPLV

[5] = target: T3, human TNFR1 (human, UniProt P19438 30-455); experiment: flow cytometry, HEK293 transfectants
T3 construct: whole, on cells
T3 sequence (looked up): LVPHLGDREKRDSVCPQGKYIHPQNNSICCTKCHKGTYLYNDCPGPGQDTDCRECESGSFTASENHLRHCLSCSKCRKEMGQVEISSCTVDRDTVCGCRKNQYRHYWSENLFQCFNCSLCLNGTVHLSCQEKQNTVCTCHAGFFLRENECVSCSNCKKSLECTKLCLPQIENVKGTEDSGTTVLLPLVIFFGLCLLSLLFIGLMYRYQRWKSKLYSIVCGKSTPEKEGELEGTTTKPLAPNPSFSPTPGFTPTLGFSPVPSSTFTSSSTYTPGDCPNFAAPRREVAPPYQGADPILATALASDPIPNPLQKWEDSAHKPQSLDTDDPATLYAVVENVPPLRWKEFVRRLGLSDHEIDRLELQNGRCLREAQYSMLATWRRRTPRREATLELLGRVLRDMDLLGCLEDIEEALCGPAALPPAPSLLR
Method: as §1

[6] = target: T4, human TNFR2 (human, UniProt P20333 23-461); experiment: flow cytometry, HEK293 transfectants
T4 construct: whole, on cells
T4 sequence (looked up): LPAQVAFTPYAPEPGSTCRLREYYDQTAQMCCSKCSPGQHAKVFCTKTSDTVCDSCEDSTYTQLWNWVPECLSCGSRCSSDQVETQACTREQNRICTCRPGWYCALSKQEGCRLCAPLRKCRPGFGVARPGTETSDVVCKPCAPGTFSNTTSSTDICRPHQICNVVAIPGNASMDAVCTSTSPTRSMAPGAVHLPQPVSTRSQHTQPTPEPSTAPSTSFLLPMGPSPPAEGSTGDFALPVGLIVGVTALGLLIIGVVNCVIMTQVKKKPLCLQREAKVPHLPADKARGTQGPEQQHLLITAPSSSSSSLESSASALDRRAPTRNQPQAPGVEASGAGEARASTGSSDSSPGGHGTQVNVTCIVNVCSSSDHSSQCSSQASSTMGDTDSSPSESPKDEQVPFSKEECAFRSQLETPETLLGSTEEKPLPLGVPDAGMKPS
Method: as §1

[7] = target: T5, human TNFR14 (human, UniProt Q92956 39-283); experiment: flow cytometry, HEK293 transfectants
T5 construct: whole, on cells
T5 sequence (looked up): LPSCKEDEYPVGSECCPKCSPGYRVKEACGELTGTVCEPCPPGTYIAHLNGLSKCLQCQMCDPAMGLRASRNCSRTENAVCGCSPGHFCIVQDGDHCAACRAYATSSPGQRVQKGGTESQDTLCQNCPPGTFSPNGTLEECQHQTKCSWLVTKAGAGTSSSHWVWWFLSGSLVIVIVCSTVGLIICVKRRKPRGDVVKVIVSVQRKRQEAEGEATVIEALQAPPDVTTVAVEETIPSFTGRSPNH
Method: as §1

[8] = target: T6, cynomolgus monkey CD40 on cells (cynomolgus monkey, UniProt P25942 21-277 (human entry)); experiment: flow cytometry, HEK293 transfectants vs control cells
T6 construct: also called cyno CD40 on HEK293 cells; CD40 on cynomolgus monkey B cells
T6 chain: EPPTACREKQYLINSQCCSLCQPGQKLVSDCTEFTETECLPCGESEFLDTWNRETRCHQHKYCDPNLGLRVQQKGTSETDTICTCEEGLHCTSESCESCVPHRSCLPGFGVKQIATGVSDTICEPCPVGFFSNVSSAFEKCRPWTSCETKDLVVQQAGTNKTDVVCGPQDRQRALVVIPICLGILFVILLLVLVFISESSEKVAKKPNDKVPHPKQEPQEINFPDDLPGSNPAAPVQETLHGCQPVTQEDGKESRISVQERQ
Method: as §1

[9] = target: T2, mouse CD40 on cells; experiment: as above
Method: as §1

[10] = target: T3, human TNFR1; experiment: as above
Method: as §1

[11] = target: T4, human TNFR2; experiment: as above
Method: as §1

[12] = target: T7, human TNFR10 (human); experiment: as above
T7 construct: whole, on cells; Name as printed is ambiguous (TNFRSF10A-D)
Method: as §1

[13] = target: T5, human TNFR14; experiment: as above
Method: as §1

[14] = target: T1, human CD40 on cells; experiment: flow cytometry, labelled CD40L on CD40-293T cells, antibody at 5 ug/ml
Method: (§2) Percent ligand binding inhibition was calculated as [(CD40L binding gMFI in the absence of anti-CD40)−(CD40L binding gMFI in the presence of anti-CD40)]/(CD40L binding gMFI in the absence of anti-CD40). gMFI: geometric mean fluorescent intensity. All anti-CD40 antibodies show minimal effects on the ability of CD40L to bind to the CD40 receptor (Table 7).
Target sequence in this assay (P25942 21-277 limits assumed): as the sequence (P25942 21-277 limits assumed) above

[15] = target: T1, human CD40 on cells; experiment: flow cytometry, labelled CD40L on CD40-293T cells, antibody at 10 ug/ml
Method: as §2
Target sequence in this assay (P25942 21-277 limits assumed): as the sequence (P25942 21-277 limits assumed) above

[16] = target: T1, human CD40 on cells; experiment: flow cytometry, labelled CD40L on CD40-293T cells, antibody at 20 ug/ml
Method: as §2
Target sequence in this assay (P25942 21-277 limits assumed): as the sequence (P25942 21-277 limits assumed) above

[17] = target: T1, human CD40 on cells; experiment: flow cytometry, labelled CD40L on CD40-293T cells, antibody at 2.5 ug/ml
Method: as §2
Target sequence in this assay (P25942 21-277 limits assumed): as the sequence (P25942 21-277 limits assumed) above

Sequence of human CD40 (P25942 21-193 limits assumed): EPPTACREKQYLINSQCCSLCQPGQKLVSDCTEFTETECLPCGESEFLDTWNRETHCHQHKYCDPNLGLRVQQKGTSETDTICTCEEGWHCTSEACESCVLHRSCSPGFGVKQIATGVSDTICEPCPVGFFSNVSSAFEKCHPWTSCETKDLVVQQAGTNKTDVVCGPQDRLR

B1: 33H9 (antibody, IgG4, V domains shown)
VH: QVQLVESGGGVVQPGRSLRLSCAASGFTFSSHGMHWVRQPPGKGLEWVAVIWYDGSNEYYGDSVKGRFTISRDNSKNTLYLQMNSLRVEDTAVYYCTRGGGHWNYEGHYYGMDVWGQGTTVTVSS
VL: QAVPTQPSSLSASPGASASLTCTLRSGINVGSSRIYWYQQKPGSPPQFLLRYTSDSDKLQGSGVPSRFSGSKDASANAGLLLISGLQSEDEADYYCMIWHSSAVVFGGGTKLTVLG
notes: also called 4897-1
[1]
  Kd: 580 pM
  koff: 0.000238 s⁻¹
  kon: 407000 M⁻¹ s⁻¹
[2]
  human B cell proliferation, no crosslinking, EC50: > 16700 pM
  human B cell proliferation, no crosslinking, Max Fold Change: 1.35 fold
  human B cell proliferation, with protein G crosslinking, EC50: 344 pM
  human B cell proliferation, with protein G crosslinking, Max Fold Change: 23.2 fold
[3]
  human B cell proliferation, no crosslinking, % Max Activity: 2.3%
  human B cell proliferation, no crosslinking, EC50: > 13400 pM
  human B cell proliferation, with protein G crosslinking, % Max Activity: 88.9%
  human B cell proliferation, with protein G crosslinking, EC50: 190 pM
[4]
  binding result: no binding
[5]
  binding result: no binding
[6]
  binding result: no binding
[7]
  binding result: no binding
[8]
  fold over control (gMFI): 73 fold
[9]
  fold over control (gMFI): 0.9 fold
[10]
  fold over control (gMFI): 1.03 fold
[11]
  fold over control (gMFI): 0.93 fold
[12]
  fold over control (gMFI): 0.89 fold
[13]
  fold over control (gMFI): 0.88 fold
[14]
  Ligand Binding Inhibition (%): 9%
[15]
  Ligand Binding Inhibition (%): 3%
[16]
  Ligand Binding Inhibition (%): 1%
[17]
  Ligand Binding Inhibition (%): -3%
